Patent publication US20170198014A1 (UNIVERSITY WASHINGTON THROUGH ITS CENTER FOR …, published 2017)

B1: Hsc1 (SEQ ID NO:135) fused to HAA.1c (SEQ ID NO:227) via the triLong linker (SEQ ID NO: 352), trimer (designed binder)
chain: MEEVVLITVPSEEVARTIAKALVEERLAACVNIVPGLTSIYRWQGEVVEDQELLLLVKTTTHAFPKLKERVKALHPYTVPEIVALPIAQGNQEYLDWLRENAGGGGSGGSGIVNVPNCNTTKYQQLARTAVAIYNYHEQAHLTFVENLNCKEQLGEGDYYYITLAATDDAGKKAIYEAKIGVVESAGWTGVEEFKLV
B2: HAA.1 c fused to Hsc1-EA via a triLong linker, trimer (designed binder)
chain: MEEVVLITVPSEEVARTIAKALVEERLAACVNIVPGLTSIYRWQGEVVEDQELLLLVKTTTHAFPKLKERVKALHPYTVPEIVALPIAQGNQEYLDWLRENAGGGGSGGSGIVNVPNCNTTKYQQLARTAVAIYNYHEQAHLTFVENLNCKEQGNYYYITLAATDDAGKKAIYEAKIGVVESAGWTGVEEFKLV

Experiments:
[1] = biological target: T1, hemagglutinin H3 (A/Hong Kong/1/1968-H3N2) (influenza A virus A/Hong Kong/1/1968 …, UniProt Q91MA7 27-521); test: BLI (Octet), biotinylated HA on streptavidin sensors
[2] = biological target: hemagglutinin H1 (A/Solomon Islands/3/2006) (influenza A virus A/Solomon …); test: as above
[3] = biological target: T1, hemagglutinin H3 (A/Hong …); test: BLI (FIG. 5)

Row | Binder | Kd [1] [nM] | Kd [2] [nM] | Kd [3] [nM]
1 | B1 | < 1 | < 1 | 
2 | B2 |  |  | < 1
